Positions count from the first letter of the chain named. Names may count otherwise. “And” between values parts separate entries of the source, which are not always exact repeats. Equal values may be shown once.
B1: Chryseobacterium sp-62563 propeptide V25H (protein)
chain: NQDPNLVAKESNETAMKDFGKTVPHGIEKEDGKFKISFMVTAQPYEIKDSKENAAYISMIKTAVENETPIHVFLKANTNEIAKVDKATDDDIRYFKSVFTKEVKEENRK
B2: Chryseobacterium sp-62563 propeptide Y45T (protein)
chain: B1 chain with H25V, Y45T
B3: Chryseobacterium sp-62563 propeptide V23S (protein)
chain: B1 chain with V23S, H25V
B4: Chryseobacterium sp-62563 propeptide Y45A (protein)
chain: B1 chain with H25V, Y45A
B5: Chryseobacterium sp-62563 propeptide T41E (protein)
chain: B1 chain with H25V, T41E
B6: Chryseobacterium sp-62563 propeptide F38T (protein)
chain: B1 chain with H25V, F38T
B7: Chryseobacterium sp-62563 propeptide F38C (protein)
chain: B1 chain with H25V, F38C
B8: Chryseobacterium sp-62563 propeptide V40P (protein)
chain: B1 chain with H25V, V40P
B9: Chryseobacterium sp-62563 propeptide Q43K (protein)
chain: B1 chain with H25V, Q43K
B10: Chryseobacterium sp-62563 propeptide E52P (protein)
chain: B1 chain with H25V, E52P
B11: Chryseobacterium sp-62563 propeptide Q43V (protein)
chain: B1 chain with H25V, Q43V
B12: Chryseobacterium sp-62563 propeptide Q43D (protein)
chain: B1 chain with H25V, Q43D
B13: Chryseobacterium sp-62563 propeptide T41D (protein)
chain: B1 chain with H25V, T41D
B14: Chryseobacterium sp-62563 propeptide Y45K (protein)
chain: B1 chain with H25V, Y45K
B15: Chryseobacterium sp-62563 propeptide K35E (protein)
chain: B1 chain with H25V, K35E
B16: Chryseobacterium sp-62563 propeptide D49P (protein)
chain: B1 chain with H25V, D49P
B17: Chryseobacterium sp-62563 propeptide Y45G (protein)
chain: B1 chain with H25V, Y45G
B18: Chryseobacterium sp-62563 propeptide Y45Q (protein)
chain: B1 chain with H25V, Y45Q
B19: Chryseobacterium sp-62563 propeptide Q43R (protein)
chain: B1 chain with H25V, Q43R
B20: Chryseobacterium sp-62563 propeptide A42K (protein)
chain: B1 chain with H25V, A42K
B21: Chryseobacterium sp-62563 propeptide F38A (protein)
chain: B1 chain with H25V, F38A
B22: Chryseobacterium sp-62563 propeptide Y45N (protein)
chain: B1 chain with H25V, Y45N
B23: Chryseobacterium sp-62563 propeptide Y45S (protein)
chain: B1 chain with H25V, Y45S
B24: Chryseobacterium sp-62563 propeptide Q43H (protein)
chain: B1 chain with H25V, Q43H
B25: Chryseobacterium sp-62563 propeptide K33E (protein)
chain: B1 chain with H25V, K33E

These molecules were tested against T1, Chryseobacterium sp-62563 deamidase polypeptide (second polypeptide, deamidase domain), wildtype (Chryseobacterium sp-62563) (assay: cell-based or functional assay).
T1 sequence: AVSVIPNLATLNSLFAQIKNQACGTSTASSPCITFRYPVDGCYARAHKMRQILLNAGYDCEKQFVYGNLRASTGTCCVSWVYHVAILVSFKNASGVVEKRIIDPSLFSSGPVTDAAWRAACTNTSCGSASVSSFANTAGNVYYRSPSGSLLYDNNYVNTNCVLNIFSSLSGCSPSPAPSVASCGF

| Molecule | Relative activity of maturated deamidase (% initial rate) | NanoDSF thermal unfolding temperature [° C.] | Leakage activity |
| --- | --- | --- | --- |
| Chryseobacterium sp-62563 propeptide S97SF | 50 |  |  |
| Chryseobacterium sp-62563 propeptide V98* |  | 78.7 |  |
| Chryseobacterium sp-62563 propeptide F95* | > 100 | 77.1 |  |
| Chryseobacterium sp-62563 propeptide S97SI | 30 |  |  |
| Chryseobacterium sp-62563 propeptide K96* | > 100 | 79.5 |  |
| Chryseobacterium sp-62563 propeptide F95FA | > 100 | 79.8 |  |
| Chryseobacterium sp-62563 propeptide I92* |  | 77.5 |  |
| Chryseobacterium sp-62563 propeptide D90DA | > 100 | 80.3 |  |
| Chryseobacterium sp-62563 propeptide T100* | 98 | 81.7 |  |
| Chryseobacterium sp-62563 propeptide P44PA |  | 69.2 |  |
| Chryseobacterium sp-62563 propeptide T100TA | 41 |  |  |
| Chryseobacterium sp-62563 propeptide S97SY | 68 | 82 |  |
| Chryseobacterium sp-62563 propeptide S97SK | > 100 | 81.4 |  |
| Chryseobacterium sp-62563 propeptide S97ST | 99 | 81.6 |  |
| Chryseobacterium sp-62563 propeptide S97SS | > 100 | 81.1 |  |
| B1 | 76 |  | 1% |
| B2 | > 100 | 73.7 | 2% |
| B3 | 94 | 69.8 | 10% and 7% |
| B4 | 40 |  | 0% |
| B5 | 67 |  | 0% |

| Molecule | Relative activity of maturated deamidase (% initial rate) | NanoDSF thermal unfolding temperature [° C.] | Leakage activity |
| --- | --- | --- | --- |
| B6 | 93 |  | 2% |
| B7 | 83 | 76.2 | 26% |
| B8 | 39 |  | 0% |
| B9 | 64 |  | 3% |
| B10 |  |  | 0% |
| B11 |  |  | 0% |
| B12 | > 100 |  | 0% |
| B13 |  |  | 0% |
| B14 | 48 |  | 0% |
| B15 | > 100 |  | 0% |
| B16 |  |  | 0% |
| B17 | > 100 | 65.2 | 2% |
| B18 | 88 |  | 6% |
| B19 | 59 |  | 0% |
| B20 | > 100 |  | 0% |
| B21 | 72 |  | 2% |
| B22 | 73 |  | 2% |
| B23 | > 100 |  | 0% |
| B24 |  |  | 0% |
| B25 | 66 |  | 0% |
